Measured values reported in patent US11156615B2 (priority 2015, dated 2021).
Numbering of substitutions follows the chain as printed.

Columns and labels:
[1] = Glucose binding: isothermal fluorescence titrations, ratiometric (appKd) and monochromatic (trueKd) fits; settings: room temperature
Text: 2 For a single glucose-binding site, the fractional saturation is given by
[formula] where ^apoIλ2 and ^satIλ2 are the emission intensities of the monochromatic signal at wavelength λ2 of the ligand-free and ligand-bound protein, respectively.

[2] = Galactose binding: isothermal fluorescence titrations of conjugates; design: key to Galactose trueKd: nb, no bonding; settings: for S, selectivity = trueKd(galactose)/trueKd(glucose): S > 1, selective for glucose; for Kd: read-out: Galactose trueKd
[3] = Thermostability: mid-point thermal denaturation temperature (Tm) from temperature-dependent fluorescence (Roche LightCycler); format: physicochemical; settings: apo-protein
Summary of the method: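 Unfolding tracked by SYPRO binding to denatured protein, fluorescence at 488 nm/510 nm recorded on a LightCycler as temperature rose in 1 K steps. Tm taken as denaturation mid-point, for protein in solution or immobilized on Ni-NTA or NHS-agarose beads.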

[4] = Glucose-dependent fluorescence emission intensity spectra of conjugates (Nanodrop3300); format: biochemical; settings: Nanodrop3300
Text: Semi-synthetic FRSs were engineered by site-specifically attaching thiol-reactive, environmentally sensitive fluorophores that respond to ligand-mediated conformational changes. Identification of FRS candidates that are useful for sensing applications comprises three steps: • 1. Cysteine scan. Mutant glucose-binding proteins containing single cysteines are constructed for site-specific attachment of thiol-reactive fluorophores. […] Candidate positions fall into three classes: endosteric, replacing a residue that contacts the ligand directly; peristeric, located at the rim of the binding site; allosteric (Marvin et al. 1997 Proc Natl Acad Sci USA, 94, 4366-71; Marvin 1998 J Am Chem Soc, 120, 7-11), located outside the binding site at sites that undergo local structural changes in concert with the hinge-bending motion. • 2. Fluorophore screening. Thiol-reactive, environmentally sensitive fluorophores are attached to each cysteine mutant prepared in step 1. • 3. Evaluation of the glucose-mediated change of all the fluorescent conjugates prepared in step 2. Responses to ligand binding in which there is both a change in fluorescence emission intensity and spectral shape was essential for chemometric applications, because such changes enable ratiometric measurements. Changes in spectral shape typically are accompanied by a shift in the wavelength of the emission intensity maxima. Three classes of fluorescent responses are possible: • i. No response. • ii. Monochromatic response (emission intensity increases or decreases without a change in spectral shape) • iii.

[5] = read-out: Glucose appKd, Acrylodan conjugate, dichromatic ratiometry
[6] = read-out: Glucose appKd, Badan conjugate, dichromatic ratiometry
[7] = read-out: Glucose trueKd, Acrylodan conjugate, monochromatic titration curves
[8] = read-out: Glucose trueKd, Badan conjugate, monochromatic titration curves
[9] = Acrylodan conjugate, monochromatic titration curves, room temperature
[10] = Badan conjugate, monochromatic titration curves, room temperature
[11] = Acrylodan conjugate of ttGGBP.17C mutant
[12] = Badan conjugate of ttGGBP.17C mutant

B1: ttGGBP17C.2: affinity-tuning mutant, 17C background, SEQ ID NO: 67 (protein)
chain: MKQLNIGVAIYKFDDTCMTGVRNAMTAEAQGKAKLNMVDSQNSQPTQNDQVDLFITKKMNALAINPVDPTAAGTIIDKAKQANIPVVFFNREPLPEDMKKWDKVYYVGAKAEQSGILQGQIMADYWKAHPEADKNHDGVMQYVMLMGQPGHPDAILRTQYSIQTVKDAGIKVQELAKDYANWDRVTAHDKMAAWLSSFGDKIEAVFANNDDMALGAIEALKSAGYFTGNKYIPVVGVDATAPGIQAIKDGTLLGTVLNDAKNQAKATFNIAYELAQGITPTKDNIGYDITDGKYVWIPYKKITKDNISDAEQGGSHHHHHH
modifications: ttGGBP17C.2 (affinity-tuning mutant, 17C background (Table 6) with signal peptide replaced with M and GGSHHHHHH at C-terminus)
With B1 as the molecule, how does the Kd [1, 5] read?
The Kd was 15 mM.

And the Kd [1, 6]?
Its Kd is 8.6 mM.

What about the Kd [1, 7] of the same molecule?
The Kd was 18 mM.

And the Kd [1, 8]?
The Kd was 10.8 mM.

What about the “S, selectivity = trueKd(galactose)/trueKd(glucose)” value ([2]; Acrylodan conjugate) of the same molecule?
Its value is 0.28.

And the “S, selectivity = trueKd(galactose)/trueKd(glucose)” value ([2]; Badan conjugate)?
Its value is 0.48.

What about the Kd [2, 9] of the same molecule?
Its Kd is 5 mM.

And the Kd [2, 10]?
Its Kd is 5.2 mM.

And the apoTm ([3]; Badan conjugate)?
The apoTm was 350 K.

What about the “Type of fluorescence response to glucose” value [4, 11] of the same molecule?
Its value is “d (d, intensity decrease only)”.

What about the “Type of fluorescence response to glucose” value [4, 12] of the same molecule?
The value was “r(h) (r(h), ratiometric (hypsochromic shift))”.

B2: ttGGBP17C.3: affinity-tuning mutant, 17C background, SEQ ID NO: 68 (protein)
chain: B1 chain with T16N, P69R, P152Q, D211A
modifications: ttGGBP17C.3 (affinity-tuning mutant, 17C background (Table 6) with signal peptide replaced with M and GGSHHHHHH at C-terminus)
Which Kd [1, 5] does the source give for B2 here?
The Kd was 1.4 mM.

And the Kd [1, 6]?
The Kd was 3.4 mM.

And the Kd [1, 8]?
Its Kd is 4.1 mM.

And the Kd [2, 9]?
Its Kd is 0.53 mM.

And the Kd [2, 10]?
Its Kd is 2.5 mM.

And the apoTm ([3]; Badan conjugate)?
The apoTm was 346 K.

What about the “Type of fluorescence response to glucose” value [4, 11] of the same molecule?
Its value is “d (d, intensity decrease only)”.

What about the “Type of fluorescence response to glucose” value [4, 12] of the same molecule?
Its value is “r(h) (r(h), ratiometric (hypsochromic shift))”.

B3: ttGGBP17C.5: affinity-tuning mutant, 17C background, SEQ ID NO: 70 (protein)
chain: B1 chain with D15A, P69R, P152Q
modifications: ttGGBP17C.5 (affinity-tuning mutant, 17C background (Table 6) with signal peptide replaced with M and GGSHHHHHH at C-terminus)
For B3, which Kd [1, 5] is on record?
Its Kd is 6 mM.

What about the Kd [1, 6] of the same molecule?
Its Kd is 16 mM.

And the Kd [1, 7]?
The Kd was 6 mM.

And the Kd [1, 8]?
The Kd was 16 mM.

And the apoTm ([3]; Acrylodan conjugate)?
The apoTm was 348 K.

And the apoTm ([3]; Badan conjugate)?
The apoTm was 345 K.

What about the “Type of fluorescence response to glucose” value [4, 11] of the same molecule?
Its value is “r(h) (r(h), ratiometric (hypsochromic shift))”.

What about the “Type of fluorescence response to glucose” value [4, 12] of the same molecule?
Its value is “r(h) (r(h), ratiometric (hypsochromic shift))”.

B4: ttGGBP17C.10: affinity-tuning mutant, 17C background, SEQ ID NO: 75 (protein)
chain: B1 chain with G20A, P69R, P152Q
modifications: ttGGBP17C.10 (affinity-tuning mutant, 17C background (Table 6) with signal peptide replaced with M and GGSHHHHHH at C-terminus)
Which results are given for B4?
apoTm ([3]; Acrylodan conjugate): 351 K; Type of fluorescence response to glucose [4, 11]: d (d, intensity decrease only)

B5: ttGGBP17C.11: affinity-tuning mutant, 17C background, SEQ ID NO: 76 (protein)
chain: B1 chain with P69R, P152Q, T240A
modifications: ttGGBP17C.11 (affinity-tuning mutant, 17C background (Table 6) with signal peptide replaced with M and GGSHHHHHH at C-terminus)
Which Kd [1, 5] does the source give for B5 here?
The Kd was 0.04 mM.

What about the Kd [1, 7] of the same molecule?
The Kd was 0.04 mM.

What about the apoTm ([3]; Acrylodan conjugate) of the same molecule?
The apoTm was 348 K.

And the “Type of fluorescence response to glucose” value [4, 11]?
Its value is “d (d, intensity decrease only)”.

B6: ttGGBP17C.22: affinity-tuning mutant, 17C background, SEQ ID NO: 80 (protein)
chain: B1 chain with P69R, P152Q, A260N
modifications: ttGGBP17C.22 (affinity-tuning mutant, 17C background (Table 6) with signal peptide replaced with M and GGSHHHHHH at C-terminus)
For B6, which Kd [1, 6] is on record?
The Kd was 12 mM.

What about the Kd [1, 8] of the same molecule?
Its Kd is 15 mM.

What about the apoTm ([3]; Badan conjugate) of the same molecule?
Its apoTm is 343 K.

What about the “Type of fluorescence response to glucose” value [4, 12] of the same molecule?
Its value is “i (i, intensity increase only)”.

B7: ttGGBP17C.24: affinity-tuning mutant, 17C background, SEQ ID NO: 82 (protein)
chain: B1 chain with P69R, P152Q, A260R
modifications: ttGGBP17C.24 (affinity-tuning mutant, 17C background (Table 6) with signal peptide replaced with M and GGSHHHHHH at C-terminus)
With B7 as the molecule, how does the Kd [2, 10] read?
Its Kd is 29 mM.

What about the apoTm ([3]; Badan conjugate) of the same molecule?
Its apoTm is 344 K.

What about the “Type of fluorescence response to glucose” value [4, 12] of the same molecule?
The value was “i (i, intensity increase only)”.

B8: ttGGBP17C.25: affinity-tuning mutant, 17C background, SEQ ID NO: 83 (protein)
chain: B1 chain with P69R, P152Q, A260K
modifications: ttGGBP17C.25 (affinity-tuning mutant, 17C background (Table 6) with signal peptide replaced with M and GGSHHHHHH at C-terminus)
For B8, which Kd [1, 6] is on record?
The Kd was 3.2 mM.

And the Kd [1, 8]?
Its Kd is 3.7 mM.

What about the “Galactose trueKd” value [2, 10] of the same molecule?
Its value is “nb^e”.

And the “Type of fluorescence response to glucose” value [4, 12]?
The value was “i (i, intensity increase only)”.

B9: ttGGBP17C.29: affinity-tuning mutant, 17C background, SEQ ID NO: 87 (protein)
chain: B1 chain with P69R, P152Q, A260S
modifications: ttGGBP17C.29 (affinity-tuning mutant, 17C background (Table 6) with signal peptide replaced with M and GGSHHHHHH at C-terminus)
For B9, which apoTm ([3]; Badan conjugate) is on record?
The apoTm was 343 K.

What about the “Type of fluorescence response to glucose” value [4, 12] of the same molecule?
Its value is “i (i, intensity increase only)”.

B10: ttGGBP17C.1: affinity-tuning mutant, 17C background, SEQ ID NO: 66 (protein)
chain: B1 chain with P69R, R91K, Q148E, P152Q
modifications: ttGGBP17C.1 (affinity-tuning mutant, 17C background (Table 6) with signal peptide replaced with M and GGSHHHHHH at C-terminus)
For B10, which Kd [1, 6] is on record?
The Kd was 0.6 mM.

What about the Kd [1, 8] of the same molecule?
The Kd was 0.8 mM.

And the “Type of fluorescence response to glucose” value [4, 11]?
Its value is “d (d, intensity decrease only)”.

And the “Type of fluorescence response to glucose” value [4, 12]?
Its value is “r(h) (r(h), ratiometric (hypsochromic shift))”.
